{"source": "paper PMC7316235", "about": "“Computational and structure-guided design of phosphoinositide substrate specificity into the tyrosine specific LMW-PTP enzyme” (PLoS ONE, 2020)", "key": {"LMW-PTP (LMW-PTPB) [1]": {"biological_target": "T1, LMW-PTP (LMW-PTPB) (Homo sapiens, UniProt P24666, L14R/I17K, form not given)", "T1 construct": "gene ACP1; N-terminal 6xHis tag (pNIC28a-Bsa4, TEV-cleavable; cleavage described only for crystallisation); E. coli BL21-DE3", "T1 sequence (P24666 1-158 isoform P24666-2 L14R/I17K)": "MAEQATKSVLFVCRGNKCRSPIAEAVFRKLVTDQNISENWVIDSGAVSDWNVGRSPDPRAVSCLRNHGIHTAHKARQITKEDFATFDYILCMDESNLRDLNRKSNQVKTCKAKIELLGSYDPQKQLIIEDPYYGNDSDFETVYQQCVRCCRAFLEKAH", "assay": "pNPP assay, Michaelis-Menten fit", "type": "biochemical", "conditions": "pH 5.5, 37 °C; read-out: RK / Km", "from_the_text": "(§1) pNPP assay, Michaelis-Menten fit on LMW-PTP (LMW-PTPB)"}, "LMW-PTP (LMW-PTPB) [2]": {"biological_target": "T1, LMW-PTP (LMW-PTPB)", "assay": "malachite green phosphate release, Michaelis-Menten fit", "type": "biochemical", "conditions": "pH 5.5, 37 °C, diC8 lipid", "from_the_text": "(§2) malachite green phosphate release, Michaelis-Menten fit on LMW-PTP (LMW-PTPB)"}, "LMW-PTP (LMW-PTPB) [3]": {"biological_target": "T2, LMW-PTP (LMW-PTPB) (Homo sapiens, UniProt P24666, L14R/I17T, form not given)", "T2 construct": "gene ACP1; N-terminal 6xHis tag (pNIC28a-Bsa4, TEV-cleavable; cleavage described only for crystallisation); E. coli BL21-DE3", "T2 sequence (P24666 1-158 isoform P24666-2 L14R/I17T)": "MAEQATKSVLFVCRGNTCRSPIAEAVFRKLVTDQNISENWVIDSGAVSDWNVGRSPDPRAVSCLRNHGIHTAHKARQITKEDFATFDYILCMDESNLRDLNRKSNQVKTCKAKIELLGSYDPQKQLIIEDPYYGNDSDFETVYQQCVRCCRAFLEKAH", "assay": "malachite green phosphate release, Michaelis-Menten fit", "type": "biochemical", "conditions": "pH 5.5, 37 °C, diC8 lipid", "from_the_text": "as §2"}, "[4]": {"substrate": "CCCCCCCC(=O)OC[C@H](COP(=O)(O)O[C@@H]1[C@H](O)[C@H](OP(=O)(O)O)[C@@H](O)[C@H](OP(=O)(O)O)[C@H]1O)OC(=O)CCCCCCC", "assay": "malachite green phosphate release, Michaelis-Menten fit", "type": "biochemical, Homo sapiens", "conditions": "pH 7.5, 37 °C, diC8 lipid", "from_the_text": "malachite green phosphate release, Michaelis-Menten fit on MTMR2"}, "[5]": {"substrate": "N[C@@H](Cc1ccc(OP(=O)(O)O)cc1)C(=O)O", "assay": "malachite green phosphate release, Michaelis-Menten fit", "type": "biochemical, Homo sapiens", "conditions": "pH 5.5, 37 °C", "from_the_text": "as §2"}, "[6]": {"substrate": "O=[N+]([O-])c1ccc(OP(=O)(O)O)cc1", "assay": "pNPP assay, Michaelis-Menten fit", "type": "biochemical, Homo sapiens", "conditions": "pH 5.5, 37 °C", "from_the_text": "as §1"}}, "note": "Like-named read-outs stand apart in the source and are kept apart here."}
{"molecule": "O=[N+]([O-])c1ccc(OP(=O)(O)O)cc1", "note": "[pNPP]", "values": [{"measurement": "Km", "setting": "LMW-PTP (LMW-PTPB) [1]", "value": "1390 ± 105", "unit": "µM"}]}
{"molecule": "CCCCCCCC(=O)OC[C@H](COP(=O)(O)O[C@H]1[C@H](O)[C@@H](O)[C@H](OP(=O)(O)O)[C@@H](O)[C@H]1O)OC(=O)CCCCCCC", "note": "[PI(4)P]", "values": [{"measurement": "Km", "setting": "LMW-PTP (LMW-PTPB) [2]; read-out: RK / Km", "value": "30.7 ± 3.5", "unit": "µM"}]}
{"molecule": "CCCCCCCC(=O)OC[C@H](COP(=O)(O)O[C@H]1[C@H](O)[C@@H](OP(=O)(O)O)[C@H](O)[C@@H](O)[C@H]1O)OC(=O)CCCCCCC", "note": "[PI(5)P]", "values": [{"measurement": "Km", "setting": "LMW-PTP (LMW-PTPB) [3]; read-out: RT / Km", "value": "29.2 ± 3.7", "unit": "µM"}, {"measurement": "Km", "setting": "LMW-PTP (LMW-PTPB) [3]; read-out: RTK / Km", "value": "26.2 ± 3.9", "unit": "µM"}, {"measurement": "Km", "setting": "LMW-PTP (LMW-PTPB) [2]; read-out: RK / Km", "value": "35.9 ± 6.3", "unit": "µM"}, {"measurement": "Km", "setting": "LMW-PTP (LMW-PTPB) [2]; read-out: RKK / Km", "value": "27.2 ± 7", "unit": "µM"}]}
{"molecule": "CCCCCCCC(=O)OC[C@H](COP(=O)(O)O[C@@H]1[C@H](O)[C@H](OP(=O)(O)O)[C@@H](O)[C@H](O)[C@H]1O)OC(=O)CCCCCCC", "note": "[PI(3)P]", "values": [{"measurement": "Km", "setting": "LMW-PTP (LMW-PTPB) [2]; read-out: RK / Km", "value": "22.9 ± 5", "unit": "µM"}]}
{"molecule": "MTMR2 (Homo sapiens) (protein, E. coli BL21-DE3) MEKSSSCESLGSQPAAARPPSVDSLSSASTSHSENSVHTKSASVVSSDSISTSADNFSPDLRVLRESNKLAEMEEPPLLPGENIKDMAKDVTYICPFTGAVRGTLTVTNYRLYFKSMERDPPFVLDASLGVINRVEKIGGASSRGENSYGLETVCKDIRNLRFAHKPEGRTRRSIFENLMKYAFPVSNNLPLFAFEYKEVFPENGWKLYDPLLEYRRQGIPNESWRITKINERYELCDTYPALLVVPANIPDEELKRVASFRSRGRIPVLSWIHPESQATITRCSQPMVGVSGKRSKEDEKYLQAIMDSNAQSHKIFIFDARPSVNAVANKAKGGGYESEDAYQNAELVFLDIHNIHVMRESLRKLKEIVYPNIEETHWLSNLESTHWLEHIKLILAGALRIADKVESGKTSVVVHCSDGWDRTAQLTSLAMLMLDGYYRTIRGFEVLVEKEWLSFGHRFQLRVGHGDKNHADADRSPVFLQFIDCVWQMTRQFPTAFEFNEYFLITILDHLYSCLFGTFLCNSEQQRGKENLPKRTVSLWSYINSQLEDFTNPLYGSYSNHVLYPVASMRHLELWVGYYIRWNPRMKPQEPIHNRYKELLAKRAELQKKVEELQREISNRSTSSSERASSPAQCVTPVQTVV", "values": [{"measurement": "Km", "setting": "[4]", "value": "62 ± 4", "unit": "µM"}, {"measurement": "kcat", "setting": "[4]", "value": "348 ± 17 x 10^-3 s^-1"}]}
{"molecule": "LMW-PTP (LMW-PTPB) (Homo sapiens) (protein, N-terminal 6xHis tag (pNIC28a-Bsa4, TEV-cleavable; cleavage described only for crystallisation); E. coli BL21-DE3) MAEQATKSVLFVCLGNICRSPIAEAVFRKLVTDQNISENWVIDSGAVSDWNVGRSPDPRAVSCLRNHGIHTAHKARQITKEDFATFDYILCMDESNLRDLNRKSNQVKTCKAKIELLGSYDPQKQLIIEDPYYGNDSDFETVYQQCVRCCRAFLEKAH", "values": [{"measurement": "Km", "setting": "[5]", "value": "307 ± 29", "unit": "µM"}, {"measurement": "kcat", "setting": "[5]", "value": "0.000226 ± 1.9e-05", "unit": "s⁻¹"}, {"measurement": "kcat/Km", "setting": "[5]", "value": "0.735 ± 0.054", "unit": "M⁻¹ s⁻¹"}, {"measurement": "Km", "setting": "[6]", "value": "476 ± 30.2", "unit": "µM"}, {"measurement": "kcat", "setting": "[6]", "value": "6.03 ± 0.106", "unit": "s⁻¹"}, {"measurement": "kcat/Km", "setting": "[6]", "value": "12700 ± 670", "unit": "M⁻¹ s⁻¹"}]}
